Experimental data: the nanobody polyreactivity screen of Harvey et al. (2022)

Assay: yeast display, Sf9 membrane polyspecificity reagent, FACS + sequencing; frameworks hold sequencing errors
In short: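 Galactose-induced (36–48 hours) yeast carrying a synthetic nanobody display library were exposed to 10% biotinylated, detergent-solubilized Sf9 membrane reagent at 4 °C for 1 hour. FACS followed streptavidin microbead enrichment, using low and high (top ~1%) gates for expression (anti-HA) and reagent binding (streptavidin). Colony PCR, MiSeq 2 × 250 sequencing and CDR-length filtering followed. Labels for polyreactivity reflect the gate of origin.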

Row | Sequence | polyreactivity (PSR sort gate)
1 | QVQLVESGGGLVQAGGSLRLSCAASGRIFVYNAMGWYRQAPGKERELVATITSGGSTYYADSVKGRFTISRDNAKNTVYLQMNSLKPEDTAVYYCAARRWYVHYFAYGYWGQRTQVTVSS | low polyreactivity
2 | QVQLVESGGGLVQAGGSLRLSCAASGNTFRINAMGWYRQAPGKERELVAAISRSTGRTYYADSVKGRFTISRDNAKNTVYLQMNSLKPEDTAVYYCAAGYTGQEHDYWGLGTQVTVSS | high polyreactivity
3 | QVQLVESGGGLVQAGGSLRLSCAASGRIFDIYAMGWYRQAPGKEGELVAAIRLSSGTTYYADSLKGRITISRDYAKNNVYLQMSSVKQEDSAVYYCNAIYRRGRPGYYYWGQGTQVNVSS | high polyreactivity
4 | QVKLVESGGGLVQAGGSLRLSCAASGSTFPGYAMGWYRQAPGKERELVAAGGSTYYADSVKGRFTISRDNAKNTVYLQMNSLKTEDTAVYYCAATWGSVQKGTYYYWGQGTQVTVSS | low polyreactivity
5 | QVQLVESGGGLVQAGGSLRLSCAASGSTFYRNTMGWYRQAPGKERELVAAIRRSGSSTYYADSVKGRFTISRDIAKNTVYLQMNSLKREDTAVYYCAKEGLSYRYYYWGQGTQVTVSS | high polyreactivity
6 | QVQLVESGGGLVQAGGSLRLSWAASGITFRYYAMGWYRHAPGKERELVAAITSGGSTYYADSVKGRFTISRDNAKNTVYLQMNSLKPEDTAVYYCAAKYTLGVSRHPPVKKFYYWGQGTQVTVSS | high polyreactivity
7 | QVQLVESGGGLVQAGGSLRLSCAASGFTFGTYAMGWYRQAPGKERELVAGITSGDGTYYADSVKGRFTISRDNAKNTVYLQMNSLKPEDTAVYYCAVVHYQQYSWRVYFYPYDYWGQGTQVTVSS | high polyreactivity
8 | QVQLVESGGGLAQAGGSLRLSCAASGSTFNSNAMGWSRQAPGKERELVAAISRSGGRTYYADSVKGRFTISRDIAKNTVYLQMNSLKPEDTAVYYCAAGCQYISRRGYDYWGQGTQVTVSS | high polyreactivity
9 | QVQLVESGGGLVQARGSLRLSCAAYGLTLRGYAMGWYRQAPGKERELVAAISGSGTSTYYADSVKWRFTISRDNAKNTVYLQMNSLKPEDTAVYYCAAVKVRKGLEMGYWGQGTQVTVSS | high polyreactivity
10 | QVQLGESGGGLVQAGGSLRLRCAASGSTFEFYAMGWYRQAPGKERELVASITSSSGPTYYADSVKGRFTISRDNAKNTVYLQMNSLKPEDTAVFYCAKRPIRYYHLLRGNYWGQGTQVTVSS | low polyreactivity
11 | QVQLVDSGGGLVQAGGSLRLSCAASGRTFAYNVMGWYRQAPGKERELVAAISRGGGRTYYADSVKGRFTIARDNAKNTVYLQMNSLKPEDTAVYYCNAYLFFLNRVWSFDYWGQGTQVTVSS | high polyreactivity
12 | QVQLVESGGGLVQAGGSLRLSCAASGRTFYRYAMGWYRQPPGKESELVARIRATGGSTYYADSVKGRFTISRDYAKNTVYSQMNSLKPEDTAVYYCAAKIRWGSTWLGAGDYWGQGTQVTVSS | high polyreactivity
13 | QVQLVESGGGLVQAGGSLRLSCAASGSSFGYNAMGWYRQAPGKERELVAAISRSGSTYYADSVKGRFTISRDKAKNTVYLHMNSLKPEDTAVYYCDARLWWTFCEYDYWGQGTQVTVSS | high polyreactivity
14 | QVQLVESGGGLVQAGGSLRLSCAASGFTFSRNTMGWYRQAPGKARELVARISASGGSTYYADSVKGRFTISRDNAKNTVYLQMNSLKPEDTAVYYCAAVYRRYGGSRYDYWGQGTQVTVSS | high polyreactivity
15 | QVQLEESGGGLVQAGGSLRLSCAASGFNFAAYTMGWNRQAPGKEREWVAGISKRGGTTYYADSVKGRFTISRDNAKNTVYLQMNSLKPEDTAVYYCAASRYVTTSRYQYNHWGQGTQVTVSS | high polyreactivity
16 | QVQLVESGGGLVQAGGSLRLSCAASGFIFATNAMGWYRQAPGKEREFVAAITSGGSTYYADSVKGRFTISRDNAKNTVYLQMNSLKPEDTAVYYCNARTYSRVTRQTYRYRPYDYWGQGTQVTVSS | high polyreactivity
17 | QVQLVDSGGGLVQAGGSLRLSCAASGSILFEYMGWYRQAPGKERELVAAITIRDGGTYYADSVKGRFTISRDNAKNTVYLQMNSLKPEDTAVYYCNADFSGGWRYDYWGQGTQVTVSS | low polyreactivity
18 | QVQLVESGGGLVQAGGSLRRSCAASGSTFTTYAMGWYRQAPGKERELGAAITSVGSTYYEDSVKGRCTISRDNAKNTVYLQLNSLKPEDTAVYYCNVVYRDQYNDWGQGTQVTVSW | low polyreactivity
19 | QVQLVESGGGLVQAGGSLRLSCAASGSIFRYYAMGWYRQAPGKERELVAAISSNGGSTYYADSVKGRFTISRDNAKNTVYLQMNSLKPEDTAVYYCAALFRRAPGYYWGQGTQVTVSS | high polyreactivity
20 | QVLLVESGRGIVQAGGSLRLSCAASGGTFQPYAMGWYRQDTGKERELVAANSLNTGSTYYADSVKGRFTISRDNAKNTVYLQMNSLKPEDTAVDYCAVKWFYGGYDYWGQGTQVTVSS | low polyreactivity
21 | QVQLVESGGGFVQAGGSLRLSCASSGRIFYRNAMVWYRQAPGKESELVAAILGSGGRTYYADSVKGSFTISRDTAKNNVYLQMNSMKPEVTAVYYCAAYGYYVEHPRGLSGPYDDDYWGQGTQVTVSS | low polyreactivity
22 | QVQLVESGGGLVQAGGSLRLSCAASGITFRSYAMGWYRQAPGKERELVAAIRSGGSTSYADSVKGRFTISRDNAKTTVYLQMNSLKPEDTAVYYCAAGGYVPLPDITFWKFGYWGQGTQVTVSS | low polyreactivity

Row | Sequence | polyreactivity (PSR sort gate)
23 | QVQLVESGGGLVQAGGSLRLSCAASGSIFYRYTMGWYRQAPGKERELVAVISRRGGSTYYADSVKGRFTISRDNAKNTVYLQMNSLKPEDTAVYYCAVRQYRTSVRQGNTLWDDYWGQGTQVTVSS | high polyreactivity
24 | QVQLGESGGGLVQAGGSLRLSCAASGSIFNYYTMGWYRQAPGKERELVAAISSSGGSTYYADSVKGRFTISRDNAKNTVYLQMNSRKPEDTAVYYCAALGRYFTSAGGYWGQGTQVTVSS | high polyreactivity
25 | QVQLVESGGGLVQAGGSLRLSCAASGLTIVGNAMGWYRQAPGKERELVASISSRGGSTYYADSVKGRFTISLDNSKNTVYLQMNSLNPEDTAVYYCAAGNSYGVRLLYQIVTRYYWGQGTQVTVSS | high polyreactivity
26 | QVQLVDSGGRLLQAGGSLRLSSAASGLIFKRYAMGWYIQAPGKERELDAAITSGSSTNYADSVKGRFTISRDNAKNTVYLQMNSLKPEDTAVYYCARDVYFSPYYRRSFQWRFDYWGQGTQVTVSS | high polyreactivity
27 | QVQLVESGGGLVQAGGSLRLSFAASGSIFKGNVMGWYRQAPGKERELVAGISRRGTSTYYADSVKGRFTISRDNAKNSVYLQMNSLKPEDSAVYYCAKRYYTYGYDYWGQGTQVTVSS | high polyreactivity
28 | QVQLVESGGGLVQAGGSLRLSCAASGIIIYRYVMGWYRPAPGKERELVASISSSGGRTHYADSVKGRFTISRDNAKNTVYLQMNSLKPEDTAVYYCAAVQRSSFYRRYDYWGQGTQVTVSS | high polyreactivity
29 | QVQLVESGGGLVQAGGSLRLICAASGFILNSYAMGWYRQAPGKERELVAAITRSGGNTFYADSVKGRFKISRDNAKNTVYLQLNSLKPDDTAVYYCNAYFTYWSQLYYWGQGTQVTVSS | high polyreactivity
30 | QVQLVESGGGLVQAGGSLRLSCAASGSIFSIYAMGWYRQAPGKERELVAAISSGGSTYADSVKGRFTISRDNAKNTVYLQMNSLKPEDTAVYYCAADRRGYRGYDYWGQGTQVTVSS | low polyreactivity
31 | QVQLVESGGGLVQAGGSLRLSCAASGITFALYAMGWYRQAPGKERELVAAISYSGGRTYYADSVKGRFTISRDNAKNTVYLQMNSLKPEDTAVYYCAAGGSGSGPYGYGYWGQGTQVTVSS | high polyreactivity
32 | QVQLVESGGGLVQAGGSLRLSCAASGSTFWYYAMGWYRQEPGKERELVASITYSGGSTYYADSVKGRFTISRDNAKNTVYLQMNSLKPEDTAVYYCAAQSPAYYTKSYWGQGTQVTVSS | low polyreactivity
33 | QVQLVESGGGLVQAGGSLRLSCAASGFNFYYYAMGWYRQAPGKERELVAVLTESGSSTYYADSVKGRFTISRDNAKNTVYLQMNSLKPEDSAVYYCNADFWPFTGKYDSVHLDYWGQATQVTVSS | low polyreactivity
34 | QVQLVESGGGLVQAGGSLRLSCAASGYIFDVYAMGWYRQAPGKERELVAAISSSGGRTYYADSVKGRFTISRDTAKNTVYLQMNSLKPEDTAVYYCAAKTHSRTKVYTADYWGQGTQVTVSS | high polyreactivity
35 | QVQLGESGGGLVQAGGSLRLSCAPSGNNFVGNAMGWCRQAAGKERELVAAIRRSGGTTYYADSVKGRFTISRDNAKNTVYLQMNSLKPEDTAVYYCAASRPYQGDYWGQGTQVTVSS | low polyreactivity
36 | QVQLEDSGGGLVQAGGSLRLSCAASGSTFYTYAMGWYRQAPGKERELVAAITFIDGSTYYADSVKGRFTISRDNAKNTVYLQMNSLKPEDTAVYYCAADDAKFRYRDDYWGQGTQVTVSS | low polyreactivity
37 | QVQLVESGGGLVQAGGSLRLSCAASGFIFYSYVMGWSRQAPGKERELVAAISRSGGSTYYADSVKGRFTISRDNAKNTVYLQMNSLKPEDTAVYYCAVDGISGTSYGEGDEYWGQGTQVTVSS | high polyreactivity
38 | QVQLVESGGGLVQAGGSLRLSCAASGSIFDFYAMGRYRQAPGKERELVAAISYSGSSTYYADSVKGRFTISRDNAKNTVYLQMNSLKPEDTAVDYCATDYPGGYVYYSRFDYWGQGTQVTVSS | low polyreactivity
39 | QVQLVESGGGLVQAGGSLRLSCAASGSTFVLYALGWYRQPPGKERELVAVISWSGGSTYYADSVKGRFTISRDKAKNTVYLQMNSLKPEDTADYYCAATGWSSFYYRFDYWGQGTQVTVSS | low polyreactivity
40 | QVQLVESGGGLVQAGGSLRLSCDASGSIVRYNAMGWYRQAPGKERELVADISTSGGSTYYADSVKGRFTISRDNANNTVYVQMNSLKPEDTAVYYCAKPWYSSGFDYWGQGTQVTVSS | high polyreactivity
41 | QVQLVESGGGLVKAGGSLRLSCAASGFTFPQYAMGWYRQAPGKESELVAAISKRSGGTRYADSVKGRFTISRDNAKNTVYLQMNSLKPEDTAVYYCAAATPSGYYYWGQGTQVTVSS | high polyreactivity
42 | QVQLEESGGGLVQAGGSLRLICAASGGTFSYNAMGWYRQAPGKERELVAAISWSGTRTYYADSVKGRFTISRDNEKNTVYLQMNSLKPEDTAVYYCNADSDTPRYDYWGLGTQVTVSS | low polyreactivity
43 | QVQLVESGGGLVQAGGSLRLSCAASGSIYNKNAMGWNRQAPGKERELVAAINQSGGGTYYADSVKGRFTISRDNAKNTVYLQMNSLKPEDTAVYYCAAQVWAGIRYYHMYYWGQGTQVTVSS | low polyreactivity
